Source: the nanobody polyreactivity screen of Harvey et al. (2022)

experiment: yeast display, Sf9 membrane polyspecificity reagent, FACS + sequencing; frameworks hold sequencing errors
Procedure, shortened: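 Polyreactivity labels are assigned by the sorting gate from which each nanobody was recovered. The gates were low and high (top ~1%), set on anti-HA fluorescence for expression and streptavidin fluorescence for reagent binding. Before sorting, galactose-induced (36–48 hours) yeast display cells were stained for 1 hour at 4 °C with 10% biotinylated, detergent-solubilized Sf9 membrane reagent.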

Row | Sequence | polyreactivity (PSR sort gate)
1 | QVHLVESGGGLVQAGGSLRLSCAASGSIFLAYAMGWYRQAPGKERELVAAISGGGSTYADSVKGRFTISRDNAKNTVYLQMNSLKPEDTAVYYCNADGRGDRFWSNFRFDYWGQGTQVTVSS | low polyreactivity
2 | QVQLVESGGGLVQAGGSIRLSCAASGIIFDTYAMGWYRQAPGKERELVAVISASGGSTYYADSVKGRFTISRDNAKNTVYLQMNSLKPEDTAVYYCAARHSLYGYWGQGTQVTVSS | high polyreactivity
3 | QVQLVESGGGLVQAGGSLRLSCAASGITFDGYAMGWYRQAPGKERELVAAIRSSGGSTYYADSVKGRFTISRDNAKNTVYLQMNSLKPEDTAVYYCATDKVTVWGWKYDSWGQGTQVTVSS | low polyreactivity
4 | QVQLVESGGGLVQAGGSLRLSCSASGITFGANTMGWYRQAPGKERELVAAITISGGITHYADSVKGRFTISRDHAKNTVYLQMNSLKPEDTAVYYCAAGAYWRLYPYRQRNGGRMYYWGQGTQVTVSS | low polyreactivity
5 | QVQLVESGVCIVEAGGSLRLSCAASGRSLKVYAMGWYRQAPGKERELVAAISQRGGSTYYADSVKGRFTISRDNAKNSVYLQMNSRKPEDTAVYYCAARYPYQSYLYRFDYWGQGTQVTVSS | high polyreactivity
6 | QVQLVESGGGLVQAGGSLRLSCAASGITFAYYVKGWYRQAPGKERQLVAAITRSGDITSYADSVKGRFTISRDNAKNTVYLQMNSLKPEDTAVYYCNARRGYQSRRYNYWGQGTQVTVSS | high polyreactivity
7 | QVQLVESGGGLVQAGGSLRLSCAASGGIFRYYAMGWYRQAPGKERELVAAISKSGGRTYYADSVKGRFTISRDNAKNTVYLQMNSLKPEDTAVYYCNAEYTWHSGYDYWGQGTQVTVSS | low polyreactivity
8 | QVQLVESGGGVVQAGGSLRLICAATGSIFGYAMGWYRQAPGKERELVGAISFSGVSTYYADSVMGRFTISRDNAKNTVYLEMNSLKPEDTAVYYSNAYSDGDEDYWGQGTQGTVSS | low polyreactivity
9 | QVQLVESGGGLVQAGGSLRLSCAASGRIFWRNTMGWYRQAPGKERELVAAITRTGGSTYYADSVKGRFTISRDNAKNTVYLQMNSLKPEDTAVYYCAAQQHYGDGYWGQGTQVTVSS | high polyreactivity
10 | QVQLVESGGGLVQAGGSLRLSCAASGSTLYSYVMGWYRQAPGKERELVAAIRSSGGSTYYADSVKGRFTISRDNAKNTVYLQMNSLKPEDTAVYYCAKEWKVDVASKFLYHYYYWGQGTQVTVSS | high polyreactivity
11 | QVQHVESGGGLVQAGGSLRLSCAASGLIFSWYAKGWYRQAPGKERELDASITIGGNTNYAYSVKGRFTISRDNAKNTVYLQMNSLKPEDTAVYYCDAQTFWYGYGGGDYWGQGTQVTVSS | low polyreactivity
12 | QVQLVESAGGLVQAGGSLRLSCASSGSTFQKYAMGWYRQAPGKESELVARISSGGSTTNADYVKGRFTISRDNAKYTVYIQMTSLKPEDTAVYYCAARLVVAQPHQWVVYLNTYYYWGQGTQVTVSS | high polyreactivity
13 | QVQLVESGGGLVKAGGSLRLSCAASGRIFYLNAMGWYRQAPGKERELVAGIRKRGGSTYYADSVKGRFTISRDNAKNTVYLQMNSLKPEDTAVYYSAGQPALTYRFYYWGQGTQVTVSS | high polyreactivity
14 | QVQLVESGGGLVQAGGSLRLSCAASGSTFPANAMGWYRQAPGKERELVATISWSGGRTYYADSVKGRFTISRDNAKNTVYIQMNSLKPEDTAVYYCAAYPLYRRRWTGDYWGQGTQVTVSS | high polyreactivity
15 | QVQLVESGGGLVQAGGSLRLSCAASGRTFDRYAMGWYRQAPGKERELVAVIRFIGGSTYYADSVKGRFTISRDNAKNTVYLQMISLKPEDTAVYFCAADATIDWVDYDYWGQGTQVTVSS | low polyreactivity
16 | QVQLVESGGGLVQAGGSLRLSCAASGRILYSYAMGWYRQEPGQEREFVAAIRRSGGSTYYADSVKGRFTISRDNAQNTVYLQMNSLKPEETAVDYCAAGRRSSGSYDYWGQGTQVTVSS | high polyreactivity
17 | QVQLVESGGGLVQAGGSLRLSCAASGRIFSVYAMGWYRQAPGKEREFVAAITKGGVGTYYADSVKGRFTISRDNAKNTVYLQMNSLKPEDTAVYYCAARHYYGADRYYSWGQGTLVTVSS | high polyreactivity
18 | QVQLVESGGGLVQAGGSLRLSCAASGRTFPRYGMGWYRQAPVKERELVATIRTGGRTNYADSVKGRFTISRDNAKNTVYVLMNSQKPEDTAVYYCATDSSKHPYSPTLLKFDYWGQGTQVTVSS | low polyreactivity
19 | QVQLVESGGGLVQAGGSLRLSCDASGSIIIGNSMGWYRQAPGKERELVAVINGSDGTTYYADSVKGRFTISRDNAKNTVYLQMNSLKPEDTAVYYCNADFIDPSVYDYNYWGQGTQVTVSS | low polyreactivity
20 | QVQLVESGGDLVQAGGSLRLSCAATGFTFDYYAMGWYRQAPGKEREFVAAISRSGGRTYYADSVKGRFTISRDNAKNTVYLQMNSLKQEDTAVYYCAAGFVGERFDYWGQGTQVTVSS | high polyreactivity
21 | QVQLVESGGGLVQAGGSLRLSCAASGSIFAGNVMGWYRQAPGKERELVAAISRRGGRTYYADSVKGRFTISRDNAKNTVYLQMNSLKPEDTAVYYCAARRDPVLGKSDYWGQGTQVTVSS | high polyreactivity
22 | QVQLVESGGGLVQAGGSLRLSCAASVSIFDSYAMAWYRQAPGKERELVAAISKRGGSTYYADSVKGRFTISRDTAKNTVYLQMNCLKPEDTAVYFCAAVYSQARSKAVYSEYYYWGLGTQVTVSS | high polyreactivity

Row | Sequence | polyreactivity (PSR sort gate)
23 | QVQLVESGGGLVQAGGSLRLSCAASGRIFHYNTMGWYRQAPGKERELVAAITSSGGSTYYADSVKGRFTISRDNAKNTVYLQMNSLKPEDTAVYYCNAVFYRYGYKVDYWGQGTQVTVSS | high polyreactivity
24 | QVQLLESGGGLVQAGGSLRLSCAASGRIFVSNAMGWYRQAPGKERELVAAISKSGGRTYYADSVKGRFTISRDNAKNTVYLQMNSLKPEDTAVYYCAADIFTQGFDYWGQGTQVTVSS | high polyreactivity
25 | QVQLVESCGGLVQAGGSLRLSCAASGSTFTVNAMGWNRQAPVKERELVDAITQSRGSTSYADSVKGRFTISRDNAKNTVYVQMNSLKPEDTAVYYCNAQRGVRSRKSYRRQFDYWGHGTQVTVSS | low polyreactivity
26 | QVQLVESGGGLVQAGGSLRLSCAASGSTFSLYAMGWYRQAPGKERELVAAISSGGRTYYADSVKGRFTISRDNAKNTVYLQMNSLKPEVTAVYYCAVYVAYLYSYYYWGQGTQVTVSS | low polyreactivity
27 | QVQLVESGGGLVQAGGSLRLSCAASGSIFPYNVMGWYRQAPGKERELVAAITTGGRTNYADSVKGRFTISRDNAKNTVYLQMNSLKPEDTAVYYCAARYGYYDSRRWYYYWGQGTQVTVSS | high polyreactivity
28 | QVQLVESGGGLVQAGGSLRLSCAASGRIFSTNAMGWYRQAPGKEREFVAAISWIGGSTYYADSVKGRFTISRDNAKNTVYLQMNSLKPEDTAVYYCAAGVYDDYPWSYDIFNLYDYWGQGTQVTVSS | low polyreactivity
29 | QVQLVESGGGLVQAGGSLRLSCAASGYIFEVNAMGWYRQAPGKERELVATIDTSSGSTNYADSVKGRFTISRDNAKNTVYLQMNSLKPEDTAVYYCAADDETVFLQDDYWGQGTQVTVSS | low polyreactivity
30 | QVQLVESGGGLVHAGGSLRISCAASGRTFLPYTMGGYRQAHGSERELVADITTSDGSTYYADSVKGRFTISRDYAKNTVYLQMNSLKPEDTAVFYCAAESPWFWAVFDYWGQGTQVTVSS | high polyreactivity
31 | QVQLVESGGGLVQAGGSLRLSCAASGSIIDVYAMGWYRQAPGKERELVAAISTSGGSTFYADSVKGRFTISRDHAKNTVYLQMNSLKPEDTAVYYCNAAKYPDQWYDEYNYWGQGTQVTVSS | low polyreactivity
32 | KVQLVESGGGLVQAGGSLRLSCASSGSIFSGYAMGWYRQAPGKERELVAAISRGGSTNYADSVKGRFTISRDNAKNTVYLQMNSLKPEDTAVYYCARDTEGKYVGYGRFGYWGQGTQVTVSS | low polyreactivity
33 | QVELVESGGGLVQPGGSLRLSCAASGRTFYLNAMGWYRQAPGKEREFVARITWSGGSTYYADSVKGRFTISRDNAKNTVYLQMNSLKPEDTAVYYCAARVRLYRGFTKYDYWGQGTQVTVSS | high polyreactivity
34 | QVQLVESGGGLVQAGGSLRLSCAASGFIFGYNAMGWYRQAPGKERELVAAISSGGSTYYADSVKGRFTISRDNAKNTVYLQMKSLKPEDTAVYYCAVELGYPIQSYALWWDFEYWGQGTQVTVSS | low polyreactivity
35 | QLQLVESGGGLVQAGGSLRLSCAASGSTFAPYAMGWYRQAPGKERELVADISGGSTNYADSVKGRFTISRDNAKNTVYLQMNSLKPEDTAVYYCATEDHVETVRRLYGYWGLGTQVTVSS | low polyreactivity
36 | QVQLVESGGGLVQAGGSLRLSCAASGFIFIYNAMGWYRQAPGKEREMVAAITGSDGGTFYADSVKGRFTISRDNAKNTVYLQLNSLKPEDTAVYYCNADNGSRQSRDGYESWGQGTQVTVSS | low polyreactivity
37 | QVQLVESGGGLVQAGGSLRLSCAASGRTFRWNAMGWYRQAPGKERELVAAISSGGSTYYADSVKGRFTISRDNAKNTVYFQMNSLKPEDTAVYYCNKYYVRAYDTQEYDYWGQGTQVTVSS | high polyreactivity
38 | QVQLVESGGGLVQAGGSLRLSCAASGRIFIGNAMGWYRQAPGKERELVAAITQSGGSTYYADSVKGRFTISRDNAKNTVYLQMNSLKPEDTAVYYCSKALRRPRSGGNPGQAYGYWGQGTQVTVSS | low polyreactivity
39 | QVQLVESGGGLVQAGGSLRLSCAASGNIFGNNAMGWYRPEPGKERELVAAISSSGTSTYYADSVKGRFTISLDNAKNTVYLQMNSLKPEDTAVYYCNADPLPYDGYYDYDYWGQGTQVTVSS | low polyreactivity
40 | QVQLVESGGGLVQAGGSLRLSCAASGRTFWRYAMGWYRQAPWKERELVARISWRGGSTNYADSVKGRFTISRDNAKNTVYLQMNSLKPEDTAVYYFNAEVLNYLVFGYQLGYDYWGQGTQVTVSS | low polyreactivity
41 | QVQLEESGRGLVQAGGSLRLSCAASGFTFNWYAMGWSSQATGKERELVATINSGGSTYYADSVKGRFTISRDNAKNTVYLQMNSLKPEDTAVYYCNRTHRRRYVKSAYNYWGQGTQVTVSS | low polyreactivity
42 | QVQLVESGGGLVQAGGSLRLSCAASGITFHSYAMGWYRQAPGKERELVAGISSGGSTNYADSVKGRFTISRDNAKNTVYLQMNSLKPEDTAVYYCAVLNHRVDSVLTRYYYWGQGTQVTVSS | low polyreactivity
43 | QVQLVESGGGLVQDGGSLPLSCAASGHIFIYYTMGWYRQAPGKERELVAGITIGGSTNYADSVKGRFTISRDNAQNTVYLQMNSLKPEDTAVYYCSTTWYLVASWYVAIFDYWGQGTQVTVSS | low polyreactivity
